Changes are numbered by the printed parent chain. Numbers in names are those of the source.
T1: mouse tenascin-C rCd4-His-FBG (rat; mouse, UniProt P05540 207-392, limits assumed)
T1 construct: domain: domains 3 and 4; C-terminal FBG fusion; biotinylated in the ELISA screen; also called Mu TNC; mouse TNC rCd4-His-FBG; not shown: 6His tag
T1 sequence (chain (part 1 of 2)): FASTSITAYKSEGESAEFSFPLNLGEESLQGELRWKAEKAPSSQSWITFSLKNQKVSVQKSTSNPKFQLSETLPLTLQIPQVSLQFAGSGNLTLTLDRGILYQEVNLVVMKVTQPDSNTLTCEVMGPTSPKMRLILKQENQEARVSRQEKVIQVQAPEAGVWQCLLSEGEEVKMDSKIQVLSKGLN
T1 sequence (chain (part 2 of 2)): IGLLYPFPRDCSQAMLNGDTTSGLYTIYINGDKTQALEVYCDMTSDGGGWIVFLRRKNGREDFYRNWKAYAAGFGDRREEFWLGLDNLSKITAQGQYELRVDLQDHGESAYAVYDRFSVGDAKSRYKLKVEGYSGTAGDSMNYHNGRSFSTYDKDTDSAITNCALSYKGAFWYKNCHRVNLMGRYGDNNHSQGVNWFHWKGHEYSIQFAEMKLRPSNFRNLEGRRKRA

T2: human tenascin-C rCd4-His-FBG (rat; human, UniProt P05540 207-392, limits assumed)
T2 construct: domain: domains 3 and 4; C-terminal FBG fusion; biotinylated in the ELISA and HTRF screens; also called Hu TNC; human TNC rCd4-His-FBG; not shown: 6His tag
T2 sequence (chain (part 1 of 2)): T1 sequence (chain (part 1 of 2))
T2 sequence (chain (part 2 of 2)): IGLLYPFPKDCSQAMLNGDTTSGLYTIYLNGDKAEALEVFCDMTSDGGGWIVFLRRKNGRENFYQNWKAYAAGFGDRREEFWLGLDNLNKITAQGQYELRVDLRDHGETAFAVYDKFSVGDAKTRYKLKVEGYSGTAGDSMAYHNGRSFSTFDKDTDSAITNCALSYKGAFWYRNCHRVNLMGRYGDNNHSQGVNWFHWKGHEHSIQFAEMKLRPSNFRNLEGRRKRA

T3: human tenascin-R rCd4-His-FBG (rat; human, UniProt P05540 207-392, limits assumed)
T3 construct: domain: domains 3 and 4; C-terminal FBG fusion; also called Hu TNR; human TNR rCd4-His-FBG; not shown: 6His tag
T3 sequence (chain (part 1 of 2)): T1 sequence (chain (part 1 of 2))
T3 sequence (chain (part 2 of 2)): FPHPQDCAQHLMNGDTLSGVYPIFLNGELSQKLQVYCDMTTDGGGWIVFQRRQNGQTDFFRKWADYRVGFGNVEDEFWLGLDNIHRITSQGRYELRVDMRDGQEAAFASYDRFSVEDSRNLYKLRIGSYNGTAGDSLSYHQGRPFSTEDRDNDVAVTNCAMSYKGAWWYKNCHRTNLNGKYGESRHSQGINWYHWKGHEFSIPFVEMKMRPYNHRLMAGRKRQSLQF

B1: 165_13_D1 scFv (scFv, V domains shown, not shown: small tags and cut ends)
VH: QVQLVESGGGLVQPGRSLRLSCAASGFTFDDYAMHWVRQAPGKGLEWVSGISGSGGSTYYADSVKGRFTISRDNAKNSLYLQMNSLRAEDTALYYCAKGTRGEGDTFDIWGQGTMVTVSS
VL: DIQMTQSPASLPTPVGDRVTITCRASQYIQGFLNWYQQKPGKAPKLLIYDASNLETGVPSRFSGSGSGTDFTLTISSLQPEDFATYYCQQSYSTPQTFGQGTKVDIK
notes: E. coli supernatant scFv
B2: 165_13_B1 scFv (scFv, V domains shown, not shown: small tags and cut ends)
VH: B1 VH with G99V, T100M, R101S, G102S, E103M, G104E, T106A
VL: B1 VL
notes: E. coli supernatant scFv
B3: 165_13_B6 scFv (scFv, V domains shown, not shown: small tags and cut ends)
VH: B1 VH with T100Q, R101K
VL: B1 VL
notes: E. coli supernatant scFv
B4: 161_01_F6 scFv (scFv, V domains shown, not shown: small tags and cut ends)
VH: EVRLVQSGAEVKKPGASVKVSCKVSGYTLTELSMHWVRQAPGKGLEWMGGFDPEDGETIYAQKFQGRVTMTEDTSTDTAYMELSSLRSEDTAVYYCATAQKENIANRHWGQGTLVTVSS
VL: B1 VL with P14S, K45R, D50A, N53T, E55Q, T56D, S67Y, Q96W, D105E
notes: E. coli supernatant scFv; also called 160_01_F6
B5: 162_02_F4 scFv (scFv, V domains shown, not shown: small tags and cut ends)
VH: B4 VH with N103T, I104Y, N106L, R107T, H108Y
VL: DIQMTQSPASLPTSVGDRVTITCRASQYIQGFLNWYQQKPGKAPRLLIYAASTLQDGVPSRFSGSGYGTDFTLTISSLQPEDFATYYCMHHYRSPWTFGQGTKVEIK
notes: E. coli supernatant scFv
B6: 162_02_C1 scFv (scFv, V domains shown, not shown: small tags and cut ends)
VH: B4 VH with N103T, I104Y, N106L, R107T, H108Y
VL: B5 VL with M89L, S94A
notes: E. coli supernatant scFv
B7: 161_01_H10 scFv (scFv, V domains shown, not shown: small tags and cut ends)
VH: B4 VH with K101P, E102V, N103W, I104A, A105P, N106G, R107T, H108Y
VL: B5 VL with M89Q, H90Q, H91S, R93S, S94T
notes: E. coli supernatant scFv
B8: 162_02_C2 scFv (scFv, V domains shown, not shown: small tags and cut ends)
VH: B4 VH with N103T, I104Y, N106L, R107T, H108Y
VL: B5 VL with S94A
notes: E. coli supernatant scFv
B9: 162_02_H5 scFv (scFv, V domains shown, not shown: small tags and cut ends)
VH: B4 VH with N103T, I104Y, N106L, R107T, H108Y
VL: B5 VL with M89Q, H90N, H91Q, R93T, S94G
notes: E. coli supernatant scFv
B10: 163_02_A12 scFv (scFv, V domains shown)
VH: B4 VH with N103T, I104Y, N106L, R107T, H108Y
VL: B5 VL with M89L, S94E
notes: E. coli supernatant scFv; not shown: scFv linker, domain order and the pSANG10 tags (FLAG/His)
B11: 162_02_C6 scFv (scFv, V domains shown, not shown: small tags and cut ends)
VH: B4 VH with N103T, I104Y, N106L, R107T, H108Y
VL: B5 VL with M89Q, H90N, H91Q, R93A, S94G
notes: E. coli supernatant scFv
B12: 163_02_D11 scFv (scFv, V domains shown)
VH: B4 VH with N103T, I104Y, N106L, R107T, H108Y
VL: B5 VL with M89L, R93K
notes: as for B10
B13: 162_02_D3 scFv (scFv, V domains shown, not shown: small tags and cut ends)
VH: B4 VH with K101I, E102H, N103P, I104L, A105G, N106L, R107T, H108Y
VL: B5 VL with M89Q, H90Q, H91S, R93S, S94T
notes: E. coli supernatant scFv
B14: 165_13_B6 human IgG4 (antibody, V domains shown)
VH: B1 VH with T100Q, R101K
VL: DIQMTQSPASLPTPVGDRVTITCRASQYIQGFLNWYQQKPGKAPKLLIYDASNLETGVPSRFSGSGSGTDFTLTISSLQPEDFATYYCQQSYSTPQTFGQGTKVDIKR
notes: human IgG4 with hinge S241P
B15: 2A5 human IgG4 (antibody, V domains shown)
VH: B4 VH with N103T, I104Y, N106L, R107T, H108Y
VL: B14 VL with P14S, K45R, D50A, N53T, E55Q, T56D, S67Y, Q96W, D105E
notes: human IgG4 with hinge S241P; also called 2A5 parent

target: T1, mouse tenascin-C rCd4-His-FBG; test: anti-FLAG capture ELISA, scFv supernatant

Binder	fold improvement in binding over parent
B1	≥ 4 fold
B2	≥ 4 fold
B3	≥ 4 fold
B4	≥ 10 fold
B5	≥ 10 fold
B6	≥ 10 fold
B7	≥ 10 fold
B8	≥ 10 fold
B9	≥ 10 fold
B10	≥ 10 fold
B11	≥ 10 fold
B12	≥ 10 fold
B13	≥ 10 fold

target: T2, human tenascin-C rCd4-His-FBG; test: SPR off-rate screen, captured IgG4 supernatant, 25 C
Method: (§1) The 31 scFv of interest were sub-cloned into a human IgG4 expression vector for generation of antibodies as human IgG4 with a hinge-stabilising mutation (S241P; Angal et al, 1993). […] Briefly, surface plasmon resonance (SPR) experiments were performed using a BIAcore T100 instrument and followed the protocol according to the Human antibody capture kit protocol (GE, BR-1008-39). For off-rate screening, 10,000 response units (RU) of anti-human Fc IgG (GE, BR-1008-39) was immobilised on flow-cells (FC1 and FC2) of a Series 5 CM5 dextran sensor chip (BR-1005-30) using EDC/NHS cross-linking chemistry according to the amine coupling kit protocol (GE, BR-1000-50). Culture supernatants containing expressed IgG4 were diluted 1:2 with 2×PBS-T and injected into FC2 (flowrate 5 μl/min, 60 s contact time) to enable antibody capture at 25° C. […] A fixed concentration of antigen (15 nM of human and mouse TNC rCd4-His-FBG and 100 nM of human TNR rCd4-His-FBG) was injected with a flow-path via FC 1 (reference flow cell) and FC 2 (antibody capture flow cell), with a flow rate of 30 μl/min, and the association and dissociation phases measured over 1 and 5 min time periods, respectively. Regeneration of the binding surface employed 3M MgCl₂ with 30 s contact time. Off rates were determined by reference cell subtraction and fitting the sensogram experimental data assuming a 1:1 interaction using BIAevaluation software (GE, BR-1005-97).

Binder	koff
B14	5.6e-06 s⁻¹
B15	0.0091 s⁻¹

target: T1, mouse tenascin-C rCd4-His-FBG; test: as above
Method: as §1

Binder	koff
B14	6.9e-06 s⁻¹

target: T3, human tenascin-R rCd4-His-FBG; test: as above
Method: as §1

Binder	koff
B14	0.0037 s⁻¹

target: T2, human tenascin-C rCd4-His-FBG; test: HTRF competition; competitor d2-labelled B12 IgG
Method: All samples and reagents were prepared in assay buffer (50 mM NaPO₄, 0.1% BSA, 0.4 M KF, pH 7.0) at 4× the stated concentration. 5 μl of each reagent was subsequently added to low volume 384-well assay plates (Greiner, 784075) to give a final reaction volume of 20 μl. IgG antibodies were labelled using the d2 labelling kit (CisBio, 62D2DPEA) as directed by the manufacturer. Streptavidin europium cryptate (CisBio, 610SAKLA, Lot#25C) was used at a final concentration of 1.8 ng active moiety (SA) per 20 μl reaction as recommended by the manufacturer. Biotinylated rCd4-His-FBG was prepared using EZ-link Sulfo-NHS-LC-Biotin reagent (Thermo Scientific, 21327) the extent of biotinylation was quantified using biotinylation fluorescence quantitation kit (Thermo Scientific, 46610). Where appropriate, supernatants containing scFv (prepared as described above for ELISA assays) were added to the 384-well assay plate at a final dilution of 1/20 (i.e. 1/5 dilution in assay buffer followed by addition of 5 μl diluted sample to the 20 μl FRET assay). […] Samples were incubated for approximately 1 h at room temperature and the FRET signal was determined using a BMG Pherastar instrument: excitation=320 nm; emission=620 nm and 665 nm; integration start time=60 μs; integration time=500 μs; 100 flashes per well. For competition assays containing culture supernatant, biotinylated rCd4-His-FBG antigen was pre-incubated with streptavidin europium cryptate for 45 min prior to addition of reagents to the assay plate. All FRET signals are presented as ΔR, where R=(E665/E620×104) and ΔR=(Rsample−Rbackground fluorescence).

Binder	% inhibition of HTRF signal	% inhibition of FRET signal
B1	≥ 91%	–
B2	≥ 91%	–
B3	≥ 91%	–
B4	–	≥ 90%
B5	–	≥ 83%
B6	–	≥ 83%
B7	–	≥ 90%
B8	–	≥ 83%
B9	–	≥ 83%
B10	–	≥ 83%
B11	–	≥ 83%
B12	–	≥ 83%
B13	–	≥ 90%

target: T2, human tenascin-C rCd4-His-FBG; test: SPR, captured purified IgG4, 37 C
Method: (§2) Detailed kinetic parameters were evaluated for the 9 prioritised IgG4 antibodies. Binding characteristics were determined for interaction with human, rat and dog TNC rCD4-His-FBG, and human TNR rCD4-His-FBG. Kinetic assays followed essentially the same protocols as for the off-rate determinations described above, with some modifications as follows. […] Purified anti-FBG IgG4 was diluted to a concentration of 3.5 nM in PBS, pH 7.4, 0.05% Tween-20 and injected into FC2 at a flow rate of 10 μl/min, 60 s contact time. […] Antigens were prepared by doubling dilution in PBS, pH 7.4, 0.05% Tween-20 (highest concentration 100 nM except mouse rCD4-His-FBG which was 7 nM). Assays were performed at 37° C. (30 μl/min, 120 s contact time; mouse rCD4-His-FBGFBG 10 μl/min, 60 s contact time), with both the flow cell and injection chamber equilibrated to this temperature. As before, kinetic parameters were determined by reference cell subtraction and fitting the sensogram experimental data assuming a 1:1 interaction using BIAevaluation software (GE, BR-1005-97).

Binder	Kd	koff	kon
B15	23.8 nM	0.0323 s⁻¹	1.36e+06 M⁻¹ s⁻¹

target: T1, mouse tenascin-C rCd4-His-FBG; test: SPR, captured purified IgG4, 37 C
Method: as §2

Binder	Kd	koff	kon
B15	123 nM	0.0106 s⁻¹	86800 M⁻¹ s⁻¹

Source: patent US20170306005A1 (NASCIENT, published 2017)
